The source of these data is patent US20150299255A1 (SUSAVION BIOSCIENCES, published 2015).

Where no end group is shown, it is not given here.

Experiment [1] has as its target T1, receptor NKG2D (UniProt P26718 80-216).
T1 sequence (looked up): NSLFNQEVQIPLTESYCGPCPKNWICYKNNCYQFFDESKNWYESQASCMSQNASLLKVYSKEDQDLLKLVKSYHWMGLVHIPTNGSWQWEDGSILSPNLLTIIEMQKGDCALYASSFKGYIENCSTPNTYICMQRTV
In words: isothermal microcalorimetry; SVH1C (100 µM) titrated into NKG2D (11 µM monomer).

In experiment [2] the target is T1, receptor NKG2D. In words: isothermal microcalorimetry; NKG2D concentration entered as monomeric binding sites.
Experiment [3] has as its target T2, lectin MAA from Maackia amurensis (Maackia amurensis).
T2 construct: Plant lectin; peroxidase-conjugated in the solid-phase assays
As to the kind of experiment: solid-phase competition; fetuin at one-third, equal or 5-fold the molar concentration of peptide; MAA.

T2 sequence (P0DKL3 30-278): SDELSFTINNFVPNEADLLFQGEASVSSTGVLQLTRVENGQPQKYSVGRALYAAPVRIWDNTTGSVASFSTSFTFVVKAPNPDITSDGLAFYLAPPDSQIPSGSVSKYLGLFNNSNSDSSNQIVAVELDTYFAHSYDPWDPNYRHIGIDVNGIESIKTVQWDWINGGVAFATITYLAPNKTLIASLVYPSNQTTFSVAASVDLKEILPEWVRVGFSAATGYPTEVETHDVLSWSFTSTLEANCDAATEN

B1: SVH1C ([NPSHPLSGGGGS]4K3-NH2) (peptide)
peptide: NPSHPLSGGGGS
chain: Lys-Lys-Lys-NH2
modifications: also: four copies of chain 1 bound by their C-termini to the four amino groups of the branched tri-lysine core
notes: also called quadravalent SVH1C; lead peptide
In experiment [1], B1 displayed a Ka of 1.7e+06 M⁻¹ and an equilibrium dissociation constant (Kd) of 600 nM. Besides, the “stoichiometry, n” value in experiment [2] was 0.71.

B2: fetuin (other, UniProt P12763 19-359, looked up)
chain: IPLDPVAGYKEPACDDPDTEQAALAAVDYINKHLPRGYKHTLNQIDSVKVWPRRPTGEVYDIEIDTLETTCHVLDPTPLANCSVRQQTQHAVEGDCDIHVLKQDGQFSVLFTKCDSSPDSAEDVRKLCPDCPLLAPLNDSRVVHAVEVALATFNAESNGSYLQLVEISRAQFVPLPVSVSVEFAVAATDCIAKEVVDPTKCNLLAEKQYGFCKGSVIQKALGGEDVRVTCTLFQTQPVIPQPQPDGAEAEAPSAVPDAAGPTPSAAGPPVASVVVGPSVVAVPLPLHRAHYDLRHTFSGVASVESSSGEAFHVGKTPIVGQPSIPGGPVRLCPGRIRYFKI
modifications: 12 to 15 oligosaccharides terminating predominantly as Neu5Ac-Gal on three N-linked and three O-linked glycans
notes: acts through its sialylated glycans; also called glycoprotein fetuin; sialylated protein, fetuin
In the case of B2, the “percent inhibition of SVH1C binding at a 5-fold molar excess of fetuin” value in experiment [3] was found to be 90%.

For orientation: Kd means the equilibrium constant for the complex coming apart. A high value points to a looser complex.
